Key:
SCK cells = assay: SCK.GM cell vaccination followed by SCK tumor cell challenge; format: in vivo, A/J mice; conditions: rmIL-12 250 ng/day ip days 0-4 and 7-11; challenge two weeks after vaccination
Description: A. Female A/J mice were vaccinated with 10^6 irradiated SCK.GM cells suspended in PBS at 10^7 trypan blue-excluding cells/ml. Cells were irradiated with 6000 rads from a ^137Cs source, and mice were vaccinated with 10^6 cells s.c. (day 0). […] Vaccinated and naive A/J mice were challenged fourteen days after vaccination with 2.5×10^4 trypan blue-excluding SCK cells in the opposite flank to assay for the presence of tumor immunity. Tumorigenesis was scored daily.

SCK tumors = assay: Antitumor activity of rmIL-12 against SCK tumors (tumorigenesis scored daily); format: in vivo, A/J mice; conditions: L-NAME given with rmIL-12
Protocol: Female A/J mice were injected with 2.5×10^4 SCK cells and either PBS, rmIL-12, rmIL-12+L-NAME or rmIL-12 and D-NAME on days 0-4 and 7-11. Tumorigenesis was scored daily, as described above.

B1: rmIL-12: recombinant murine Interleukin-12, heterodimeric cytokine, from Genetics Institute (protein, UniProt P43431 23-215; P43432 23-335, looked up)
Interleukin-12 subunit alpha: RVIPVSGPARCLSQSRNLLKTTDDMVKTAREKLKHYSCTAEDIDHEDITRDQTSTLKTCLPLELHKNESCLATRETSSTTRGSCLPPQKTSLMMTLCLGSIYEDLKMYQTEFQAINAALQNHNHQQIILDKGMLVAIDELMQSLNHNGETLRQKPPVGEADPYRVKMKLCILLHAFSTRVVTINRVMGYLSSA
Interleukin-12 subunit beta: MWELEKDVYVVEVDWTPDAPGETVNLTCDTPEEDDITWTSDQRHGVIGSGKTLTITVKEFLDAGQYTCHKGGETLSHSHLLLHKKENGIWSTEILKNFKNKTFLKCEAPNYSGRFTCSWLVQRNMDLKFNIKSSSSSPDSRAVTCGMASLSAEKVTLDQRDYEKYSVSCQEDVTCPTAEETLPIELALEARQQNKYENYSTSFFIRDIIKPDPPKNLQMKPLKNSQVEVSWEYPDSWSTPHSYFSLKFFVRIQRKKEKMKETEEGCNQKGAFLVEKTSTEVQCKGGNVCVQAQDRYYNSSCSKWACVPCRVRS
Effect on SCK.GM vaccine protection from tumor cell challenge (SCK cells): severely impaired this protection
median days to tumor appearance (SCK tumors; 2.5×10^4 SCK cells, treatment days 0-4 and 7-11, 9 days without rmIL-12): 14 days
delay of tumor appearance vs. untreated mice (SCK tumors; treatment started on day of SCK cell injection): about 5 days
